This test addresses recombinant Plasmodium knowlesi lactate dehydrogenase (Plasmodium knowlesi). Nature of the test: SEC; Superdex 200 10/300 GL, 50 mM phosphate buffer pH 7.4, 250 mM NaCl, 0.50 mL/min; elution volume 13 mL set against a calibration curve of protein standards.

Consider 1 substance from publication PMC8588329.

For orientation: stoichiometry N means the number of molecules, sites or subunits per partner or assembly. Take “recombinant Plasmodium knowlesi lactate dehydrogenase (enzyme)”: the stoichiometry N worked out at 4.
